Source: PMC3937224, “Convergence of Light and ABA Signaling on the ABI5 Promoter” (PLoS Genetics, 2014)

Key:
GST-ABI5 = molecular target: T1, GST-ABI5 (Arabidopsis thaliana, UniProt Q9SJN0 1-442); assay: pull-down; 2 µg 6×His-BBX21 bound to Ni-NTA magnetic beads (2 h, 4°C), incubated overnight at 4°C with 2 µg GST or GST-ABI5; wash with 10 mM Tris pH 8.0, 100 mM NaCl, 0.1% Triton X-100, 5 mM imidazol; Western blot with anti-GST; conditions: both partners purified
T1 construct: ABI5 (ABA … 5), Arabidopsis thaliana; Probably made in E. coli like GST and GST-HY5; source: purified
T1 sequence (looked up): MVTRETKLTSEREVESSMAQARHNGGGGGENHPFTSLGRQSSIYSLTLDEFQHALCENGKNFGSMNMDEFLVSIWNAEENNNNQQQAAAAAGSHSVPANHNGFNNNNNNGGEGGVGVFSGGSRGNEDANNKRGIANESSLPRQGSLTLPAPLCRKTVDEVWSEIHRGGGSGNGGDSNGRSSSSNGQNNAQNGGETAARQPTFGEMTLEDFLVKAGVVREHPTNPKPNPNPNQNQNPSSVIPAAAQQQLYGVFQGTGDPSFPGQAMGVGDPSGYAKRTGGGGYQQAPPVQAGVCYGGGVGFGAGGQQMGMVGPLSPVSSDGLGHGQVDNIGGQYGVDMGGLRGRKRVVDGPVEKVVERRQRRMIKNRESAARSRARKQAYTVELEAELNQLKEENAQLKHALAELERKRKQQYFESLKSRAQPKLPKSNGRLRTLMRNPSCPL

6xHis-BBX21 (STH2) = molecular target: T2, 6xHis-BBX21 (STH2) (Arabidopsis thaliana, UniProt Q9LQZ7 1-331); assay: EMSA; 10 mM Tris-HCl (pH not stated), 150 mM KCl, 1 mM DTT, 50 ng/ml poly(dI-dC), 2.5% glycerol, 0.05% NP-40, 100 mM ZnCl2 (so in the source), 0.5 ug/ml BSA, 20 min at room temperature; 6% native PAGE; conditions: protein: recombinant; tags: 6xHis; label: 5' biotin; blunt (complementary oligonucleotides; second strand not seen in material)
T2 sequence: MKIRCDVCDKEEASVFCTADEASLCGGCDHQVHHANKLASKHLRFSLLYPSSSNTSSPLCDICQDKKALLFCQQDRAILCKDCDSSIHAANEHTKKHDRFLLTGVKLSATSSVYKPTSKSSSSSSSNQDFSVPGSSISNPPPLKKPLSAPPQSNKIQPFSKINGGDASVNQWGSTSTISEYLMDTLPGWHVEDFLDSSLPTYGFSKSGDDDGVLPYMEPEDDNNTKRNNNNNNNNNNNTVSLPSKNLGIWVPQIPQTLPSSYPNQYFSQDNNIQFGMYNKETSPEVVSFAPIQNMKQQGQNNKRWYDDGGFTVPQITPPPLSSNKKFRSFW

GST-HY5 = molecular target: T3, GST-HY5 (Arabidopsis thaliana, UniProt O24646 1-168); assay: EMSA; 0.5 ug protein; no BBX21; 10 mM Tris-HCl (pH not stated), 150 mM KCl, 1 mM DTT, 50 ng/ml poly(dI-dC), 2.5% glycerol, 0.05% NP-40, 100 mM ZnCl2 (so in the source), 0.5 ug/ml BSA, 20 min at room temperature; 6% native PAGE; conditions: protein: recombinant; tags: N-terminal GST (pGEX-6P-1, printed pEGX-6P-1); chain copies: 2; label: 5' biotin; blunt (complementary oligonucleotides; second strand not seen in material)
T3 sequence: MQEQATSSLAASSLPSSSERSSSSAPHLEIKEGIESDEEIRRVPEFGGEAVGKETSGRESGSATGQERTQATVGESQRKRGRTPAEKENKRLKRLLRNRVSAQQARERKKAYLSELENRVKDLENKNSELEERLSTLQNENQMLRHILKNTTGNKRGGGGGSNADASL

B1: 6×His-BBX21 (natural protein, Arabidopsis thaliana, UniProt Q9LQZ7 1-331, looked up)
chain: T2 sequence
notes: BBX21 (STH2), Arabidopsis thaliana; also called 6×His-tagged BBX21; source: Escherichia coli, purified
binding result (GST-ABI5): binds

B2: ABI5 promoter probe (dsDNA)
DNA 1: GATTCCGAACTTCCATTGGGAGTGCACGTGGACTATTCACTGCATAAGG
DNA 2: CCTTATGCAGTGAATAGTCCACGTGCACTCCCAATGGAAGTTCGGAATC
binding result (6xHis-BBX21 (STH2)): no binding | binding result (GST-HY5): binds
